# Measurements taken from patent publication US20260274944A1 (published 2026).
# Residue numbers refer to the chain shown, from its start.
# B1: VHH 2-Fc (Fc fusion)
# chain: QVQLVQSGGGLVQAGGSLRLSCAASGSVSSIYAMGWYRQAPGKQREWVTTITGRGITDYAASVKGRFTISRDTAKNAVYLQMNNLKPEDTARYYCKIDRRGYAPYWGQGTQVTVSS
# B2: VHH 2-siTTRm (antibody, V domains shown)
# VH: B1 chain
# B3: VHH 2 (VHH)
# VHH: B1 chain
# B4: VHH 3 (VHH)
# VHH: QVQLVQSGGGLVQAGGSLRLSCVASGRTFSNYAMAWFRQAPGEEREFVARISWSGGRTSYADSVKGRFTISRDNAKNTVYLQMISLKPEDTAVYYCATEAGAFGGVYSSTGSYDYWGQGTQVTVSS
# B5: VHH 4-siTTRm (antibody, V domains shown)
# VH: B4 VHH with Q1E, Q6E, S54R, T98S, A100G, S109A
# B6: VHH 3-Fc (Fc fusion)
# chain: B4 VHH
# B7: VHH 4-Fc (Fc fusion)
# chain: B4 VHH with Q1E, Q6E, S54R, T98S, A100G, S109A
# B8: VHH 1-Fc (Fc fusion)
# chain: QVQLVQSGGGLVQPGGSLRLSCAVSGSIFSSATMGWYRQAPGKQRELAARISSGGSTNYLDSVKGRFTISRDNAKNTVYLQMNSLKLEDTAVYYCRLQANFGLVDYWGKGTQVTVSS
# B9: VHH 1 (VHH)
# VHH: B8 chain
# B10: VHH 5-Fc (Fc fusion)
# chain: EVQLVESGGGLVQPGGSLRLSCAASGTIFSLNPMGWYRQAPGKQLELVALISDSGTANYADFVRGRFTISRDTTKKTLYLQMNSLEPEDTAVYYCRSTFAAGNFYWGQGTQVTVSS
# What was measured:
# [1] = target: T1, mouse RAGE (mRAGE) fused to EGFP, expressed on CHO cells (mouse, UniProt Q62151 23-402); assay: flow cytometry on CHO-mRAGE-EGFP cells; apparent Kd; column head prints TfR, legend says RAGE
# T1 chain: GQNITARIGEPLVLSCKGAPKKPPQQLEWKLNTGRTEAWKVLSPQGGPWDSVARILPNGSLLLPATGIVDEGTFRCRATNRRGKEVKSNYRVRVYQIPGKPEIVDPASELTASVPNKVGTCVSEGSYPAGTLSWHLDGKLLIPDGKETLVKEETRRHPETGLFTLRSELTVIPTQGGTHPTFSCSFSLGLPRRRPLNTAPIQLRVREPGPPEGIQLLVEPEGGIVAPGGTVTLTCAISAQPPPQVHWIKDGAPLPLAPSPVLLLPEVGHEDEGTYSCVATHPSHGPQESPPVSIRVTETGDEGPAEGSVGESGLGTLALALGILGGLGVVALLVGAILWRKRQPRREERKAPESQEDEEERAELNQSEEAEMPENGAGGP
# [2] = target: T2, human RAGE (hRAGE) fused to EGFP, stably expressed on CHO cells (human, UniProt Q15109 23-404); assay: flow cytometry on CHO-hRAGE-EGFP cells; apparent Kd; column head prints TfR, legend says RAGE
# [3] = target: T1, mouse RAGE (mRAGE) fused to EGFP, …; assay: flow cytometry on CHO-mRAGE-EGFP cells; apparent Kd
# [4] = target: T1, mouse RAGE (mRAGE) fused to EGFP, …; assay: as above
# [5] = target: T1, mouse RAGE (mRAGE) fused to EGFP, …; assay: flow
# [6] = target: T1, mouse RAGE (mRAGE) fused to EGFP, …; assay: flow
# [7] = target: T2, human RAGE (hRAGE) fused to EGFP, …; assay: flow cytometry on CHO-hRAGE-EGFP cells; apparent Kd
# T2 sequence (Q15109 23-404): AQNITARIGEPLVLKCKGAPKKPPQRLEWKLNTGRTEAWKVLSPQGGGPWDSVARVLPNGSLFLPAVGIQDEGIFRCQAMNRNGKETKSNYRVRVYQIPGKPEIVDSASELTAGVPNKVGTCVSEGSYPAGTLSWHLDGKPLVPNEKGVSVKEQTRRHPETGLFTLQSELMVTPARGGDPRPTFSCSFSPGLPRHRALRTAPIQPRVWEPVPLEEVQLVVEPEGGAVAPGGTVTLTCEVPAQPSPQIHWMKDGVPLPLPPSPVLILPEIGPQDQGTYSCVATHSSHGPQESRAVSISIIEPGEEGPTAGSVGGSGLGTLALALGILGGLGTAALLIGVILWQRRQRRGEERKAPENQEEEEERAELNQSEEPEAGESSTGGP
Binder,Kd [1] [nM],Kd [2] [nM],other results
B1,9.6,3.6,–
B2,–,–,Kd [3]: 119 nM
B3,–,–,Kd [4]: 526 nM
B4,–,–,Kd [5]: 80 nM
B5,–,–,Kd [3]: 11 nM
B6,–,–,Kd [6]: 1.4 nM
B7,1.4,–,–
B8,1.9,154,–
B9,–,–,Kd [7]: 347 nM; Kd [4]: 320 nM
B10,153,3.2,–
